Test results published in paper PMC5063126.
Ends that are not written are not given here. fluorophore = not defined here

Legend:
TMR-BID BH3 = test: fluorescence polarisation; fluorescence anisotropy; Bcl-xL titrated into TMR-BID BH3 (5 nM) in sodium phosphate buffer (50 mM, pH 7.5) with sodium chloride (10 mM), 15 °C; fit to the Langmuir isotherm, apparent dissociation constant, at least three independent curves averaged
Bcl-xL = Bcl-xL (UniProt Q07817); test: not stated; fluorescently labelled peptide with Bcl-xL; data in Table S4

Molecule	Kd (TMR-BID BH3) [µM]	Kd (Bcl-xL) [µM]
Bcl-xL (from UniProt Q07817-1 1-209) (domain or fragment)	0.027	
DC(fluorophore)AEDIGVNIARHLAQVGDSIDRSI (reading uncertain; also: fluorophore not named) [LOV-BID peptide]		0.046
